Results as given in patent US20210246166A1 (Bayer, published 2021).
Bridge positions count the residues as written; N and C are the ends. Square brackets hold non-standard residues; d marks the D form. Primed or numbered codes have the meaning given here. Ends that are not written are not given here. TTDS(3) = 1,13-Diamino-4,7,10-trioxatridecan-succinamic acid; Oic = O=C(O)[C@@H]1C[C@@H]2CCCC[C@@H]2N1; PEG8 = NCCOCCOCCOCCOCCOCCOCCOCCOCCC(=O)O; Pro‑D2 = L-proline (3,4-2H), deuterated; PEG6 = NCCOCCOCCOCCOCCOCCOCCC(=O)O; tBuAla = CC(C)(C)C[C@H](N)C(=O)O; Pen = CC(C)(S)[C@H](N)C(=O)O; PEG2 = NCCOCCOCCC(=O)O; Sar = CNCC(=O)O

T1: recombinant rat MASP1 active protease (amino acids 302-704, C-terminal His Tag) (rat, UniProt Q8CHN8 302-704)
T1 sequence: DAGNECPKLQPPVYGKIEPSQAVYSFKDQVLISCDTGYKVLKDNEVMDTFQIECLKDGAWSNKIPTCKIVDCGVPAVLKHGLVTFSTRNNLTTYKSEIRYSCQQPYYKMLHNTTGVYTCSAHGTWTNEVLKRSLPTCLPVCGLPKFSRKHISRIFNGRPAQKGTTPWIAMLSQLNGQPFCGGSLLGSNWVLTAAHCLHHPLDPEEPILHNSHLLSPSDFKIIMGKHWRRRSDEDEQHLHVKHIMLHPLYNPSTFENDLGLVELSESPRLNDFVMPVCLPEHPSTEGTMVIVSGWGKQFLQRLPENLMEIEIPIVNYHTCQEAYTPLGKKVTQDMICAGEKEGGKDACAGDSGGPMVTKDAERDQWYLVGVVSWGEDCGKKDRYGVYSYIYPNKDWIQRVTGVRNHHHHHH

B1: Example 54: VIC+SRS-((tBu)A)-PPI-(Pen)+IPD-NH2 (peptide)
peptide: VICSRS[tBuAla]PPI[Pen]IPD-NH2
modifications: disulfide 3-11; N-terminus assumed
SMILES: CC[C@H](C)[C@H](NC(=O)[C@@H](N)C(C)C)C(=O)N[C@H]1CSSC(C)(C)[C@@H](C(=O)N[C@H](C(=O)N2CCC[C@H]2C(=O)N[C@@H](CC(=O)O)C(N)=O)[C@@H](C)CC)NC(=O)[C@H]([C@@H](C)CC)NC(=O)[C@@H]2CCCN2C(=O)[C@@H]2CCCN2C(=O)[C@H](CC(C)(C)C)NC(=O)[C@H](CO)NC(=O)[C@H](CCCNC(=N)N)NC(=O)[C@H](CO)NC1=O
B2: Example 141: ((N-Me)G)-IC+SRSLP-(Oic)-I-(Pen)+IPD-(PEG8(28 atoms))-NH2 (peptide)
peptide: [Sar]ICSRSLP[Oic]I[Pen]IPD[PEG8]-NH2
modifications: disulfide 3-11; N-terminus assumed
SMILES: CC[C@H](C)[C@H](NC(=O)CNC)C(=O)N[C@H]1CSSC(C)(C)[C@@H](C(=O)N[C@H](C(=O)N2CCC[C@H]2C(=O)N[C@@H](CC(=O)O)C(=O)NCCOCCOCCOCCOCCOCCOCCOCCOCCC(N)=O)[C@@H](C)CC)NC(=O)[C@H]([C@@H](C)CC)NC(=O)[C@@H]2C[C@@H]3CCCC[C@@H]3N2C(=O)[C@@H]2CCCN2C(=O)[C@H](CC(C)C)NC(=O)[C@H](CO)NC(=O)[C@H](CCCNC(=N)N)NC(=O)[C@H](CO)NC1=O
B3: Example 140: ((N-Me)G)-IC+SRSLP-(Oic)-I-(Pen)+IP-(PEG5(22 atoms))-NH2 (peptide)
peptide: [Sar]ICSRSLP[Oic]I[Pen]IP[PEG6]-NH2
modifications: disulfide 3-11; N-terminus assumed
SMILES: CC[C@H](C)[C@H](NC(=O)CNC)C(=O)N[C@H]1CSSC(C)(C)[C@@H](C(=O)N[C@H](C(=O)N2CCC[C@H]2C(=O)NCCOCCOCCOCCOCCOCCOCCC(N)=O)[C@@H](C)CC)NC(=O)[C@H]([C@@H](C)CC)NC(=O)[C@@H]2C[C@@H]3CCCC[C@@H]3N2C(=O)[C@@H]2CCCN2C(=O)[C@H](CC(C)C)NC(=O)[C@H](CO)NC(=O)[C@H](CCCNC(=N)N)NC(=O)[C@H](CO)NC1=O
B4: Example 88: ((N-Me)G)-IC+SRSLP-(Oic)-I-(Pen)+IPD-OH (peptide)
peptide: [Sar]ICSRSLP[Oic]I[Pen]IPD-OH
modifications: disulfide 3-11; N-terminus assumed
SMILES: CC[C@H](C)[C@H](NC(=O)CNC)C(=O)N[C@H]1CSSC(C)(C)[C@@H](C(=O)N[C@H](C(=O)N2CCC[C@H]2C(=O)N[C@@H](CC(=O)O)C(=O)O)[C@@H](C)CC)NC(=O)[C@H]([C@@H](C)CC)NC(=O)[C@@H]2C[C@@H]3CCCC[C@@H]3N2C(=O)[C@@H]2CCCN2C(=O)[C@H](CC(C)C)NC(=O)[C@H](CO)NC(=O)[C@H](CCCNC(=N)N)NC(=O)[C@H](CO)NC1=O
B5: Example 21: AIC+SRS-((tBu)A)-PPI-(Pen)+IPe-NH2 (peptide)
peptide: AICSRS[tBuAla]PPI[Pen]IP[dE]-NH2
modifications: disulfide 3-11; N-terminus assumed
SMILES: CC[C@H](C)[C@H](NC(=O)[C@H](C)N)C(=O)N[C@H]1CSSC(C)(C)[C@@H](C(=O)N[C@H](C(=O)N2CCC[C@H]2C(=O)N[C@H](CCC(=O)O)C(N)=O)[C@@H](C)CC)NC(=O)[C@H]([C@@H](C)CC)NC(=O)[C@@H]2CCCN2C(=O)[C@@H]2CCCN2C(=O)[C@H](CC(C)(C)C)NC(=O)[C@H](CO)NC(=O)[C@H](CCCNC(=N)N)NC(=O)[C@H](CO)NC1=O

biological target: T1, recombinant rat MASP1 active protease …; assay: cell-based or functional assay

Row | Binder | rat MASP1 IC50 [nM]
1 | B1 | 160
2 | [Sar]ICSRS[tBuAla]PPI[Pen]IP-{PEG2-NH2} (disulfide 3-11; also: HCl salt) [Example 39: ((N-Me)G)-IC+SRS-((tBu)A)-PPI-(Pen)+IP-(PEG1(10 atoms))-NH2 (HCl salt)] | 49
3 | B2 | 140
4 | B3 | 100
5 | [Sar]ICSRS[tBuAla]PPI[Pen]IP-{TTDS(3)-NH2} (disulfide 3-11) [Example 85: ((N-Me)G)-IC+SRS-((tBu)A)-PPI-(Pen)+IP-(TTDS)-NH2] | 75
6 | AICSRSL[Pro‑D2][Oic]I[Pen]IPD-OH (disulfide 3-11) [Example 142: AIC+SRSL-(Pro-D2)-(Oic)-I-(Pen)+IPD-OH] | 10.9
7 | B4 | 36
8 | [Sar]ICSRSLP[Oic]I[Pen]IP-{PEG5‑CH2CO2H (18 atoms)-NH2} (disulfide 3-11) [Example 83: ((N-Me)G)-IC+SRSLP-(Oic)-I-(Pen)+IP-(PEG5-CH2CO2H (18 atoms))-NH2] | 120
9 | B5 | 67

biological target: recombinant rat MASP2 active protease (amino acids 296-685, C-terminal His Tag) (rat, UniProt Q9JJS8 296-685); assay: cell-based or functional assay
Sequence (Q9JJS8 other isoform, or with tags, fused parts or gaps limits assumed): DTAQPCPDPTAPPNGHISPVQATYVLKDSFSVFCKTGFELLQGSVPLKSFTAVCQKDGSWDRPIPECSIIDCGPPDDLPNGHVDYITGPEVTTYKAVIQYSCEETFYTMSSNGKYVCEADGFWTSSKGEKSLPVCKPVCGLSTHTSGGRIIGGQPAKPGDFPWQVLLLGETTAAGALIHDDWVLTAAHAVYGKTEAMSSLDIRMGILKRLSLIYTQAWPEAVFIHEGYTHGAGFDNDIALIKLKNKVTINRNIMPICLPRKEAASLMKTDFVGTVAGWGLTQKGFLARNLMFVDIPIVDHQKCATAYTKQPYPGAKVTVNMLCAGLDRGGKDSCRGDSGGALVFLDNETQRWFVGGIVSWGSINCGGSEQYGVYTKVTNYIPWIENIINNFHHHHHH

Row | Binder | rat MASP2 IC50 [nM]
10 | B1 | 48
11 | [Sar]ICSRS[tBuAla]PPI[Pen]IP-{PEG2-NH2} (disulfide 3-11; also: HCl salt) [Example 39: ((N-Me)G)-IC+SRS-((tBu)A)-PPI-(Pen)+IP-(PEG1(10 atoms))-NH2 (HCl salt)] | 37
12 | B2 | 95
13 | B3 | 50
14 | [Sar]ICSRS[tBuAla]PPI[Pen]IP-{TTDS(3)-NH2} (disulfide 3-11) [Example 85: ((N-Me)G)-IC+SRS-((tBu)A)-PPI-(Pen)+IP-(TTDS)-NH2] | 37
15 | AICSRSL[Pro‑D2][Oic]I[Pen]IPD-OH (disulfide 3-11) [Example 142: AIC+SRSL-(Pro-D2)-(Oic)-I-(Pen)+IPD-OH] | 17.1
16 | B4 | 68
17 | [Sar]ICSRSLP[Oic]I[Pen]IP-{PEG5‑CH2CO2H (18 atoms)-NH2} (disulfide 3-11) [Example 83: ((N-Me)G)-IC+SRSLP-(Oic)-I-(Pen)+IP-(PEG5-CH2CO2H (18 atoms))-NH2] | 48
18 | B5 | 40
